Laboratory results: article PMC7729979, “A protein of the metallo-hydrolase/oxidoreductase superfamily with both beta-lactamase and ribonuclease activity is linked with translation in giant viruses” (Scientific Reports, 2020)

Assays:
[1] = target: TupBlac (Tupanvirus deep ocean MBL fold protein AUL78925.1) (Tupanvirus deep ocean, UniProt A0AC62AAK8); test: LC-MS of penicillin G hydrolysis and benzylpenilloic acid formation; type: biochemical; conditions: sulbactam 10 µg/mL, penicillin G 10 µg/mL, room temperature, up to 48 h; inhibition qualitative, mechanism not determined
[2] = test system: O=C(Cc1cccs1)N[C@@H]1C(=O)N2C(C(=O)O)=C(/C=C/c3ccc([N+](=O)[O-])cc3[N+](=O)[O-])CS[C@H]12; test: purified protein; conditions: PBS pH 7.4, promiscuous beta-lactamase activity

Row | Compound | LC-MS of penicillin G hydrolysis and benzylpenilloic acid formation [1] | Km [2] [µM] | kcat [2]
1 | CC1(C)[C@H](C(=O)O)N2C(=O)C[C@H]2S1(=O)=O [sulbactam] | both penicillin G degradation and benzylpenilloic acid appearance were inhibited by sulbactam |  | 
2 | TupBlac (Tupanvirus deep ocean MBL fold protein AUL78925.1) (Tupanvirus deep ocean) |  | 160 ± 5 | 8.8 × 10^–4 ± 8.5 × 10^–5 s^−1
